In publication PMC8533642 (Journal of medicinal chemistry, 2021):
Square brackets hold non-standard residues; d marks the D form. Peptide text beside a SMILES is read from it. dPhe(4-I) = N[C@H](Cc1ccc(I)cc1)C(=O)O; 2Nal = N[C@@H](Cc1ccc2ccccc2c1)C(=O)O; d2Nal = N[C@H](Cc1ccc2ccccc2c1)C(=O)O

B1: Ac-DPhe(pI)-Arg-Trp-DLys-NH2 (peptide)
peptide: Ac-[dPhe(4-I)]RW[dK]-NH2
SMILES: CC(=O)N[C@H](Cc1ccc(I)cc1)C(=O)N[C@@H](CCCNC(=N)N)C(=O)N[C@@H](Cc1c[nH]c2ccccc12)C(=O)N[C@H](CCCCN)C(N)=O
B2: Ac-DPhe(pI)-Arg-DPhe(pI)-Arg-NH2 (peptide)
peptide: Ac-[dPhe(4-I)]R[dPhe(4-I)]R-NH2
SMILES: CC(=O)N[C@H](Cc1ccc(I)cc1)C(=O)N[C@@H](CCCNC(=N)N)C(=O)N[C@H](Cc1ccc(I)cc1)C(=O)N[C@@H](CCCNC(=N)N)C(N)=O
B3: Ac-DPhe(pI)-Arg-Trp-Arg-NH2 (peptide)
peptide: Ac-[dPhe(4-I)]RWR-NH2
SMILES: CC(=O)N[C@H](Cc1ccc(I)cc1)C(=O)N[C@@H](CCCNC(=N)N)C(=O)N[C@@H](Cc1c[nH]c2ccccc12)C(=O)N[C@@H](CCCNC(=N)N)C(N)=O
B4: Ac-DPhe(pI)-Arg-DPhe(pI)-DLys-NH2 (peptide)
peptide: Ac-[dPhe(4-I)]R[dPhe(4-I)][dK]-NH2
SMILES: CC(=O)N[C@H](Cc1ccc(I)cc1)C(=O)N[C@@H](CCCNC(=N)N)C(=O)N[C@H](Cc1ccc(I)cc1)C(=O)N[C@H](CCCCN)C(N)=O

What was measured:
mMC1R = mMC1R (Mus musculus, UniProt Q01727); experiment: AlphaScreen cAMP agonist assay, HEK293 cells stably expressing mMC1R; format: cell-based; conditions: for mMC1R agonist activity in words: full agonist = 90% of maximal NDP-MSH signal
mMC3R = mMC3R (Mus musculus, UniProt P33033); experiment: AlphaScreen cAMP agonist assay, HEK293 cells stably expressing mMC3R; format: cell-based; conditions: at 100 μM
[1] = biological target: mouse melanocortin-4 receptor (mouse) (UniProt P56450)
[2] = biological target: mouse melanocortin-3 receptor (mouse) (UniProt P33033)
[3] = biological target: mouse melanocortin-4 receptor (mouse) (UniProt P56450); remark: listed apart in the source
[4] = biological target: mouse melanocortin-3 receptor (mouse) (UniProt P33033); remark: listed apart in the source
[5] = biological target: mouse melanocortin-5 receptor (mouse) (UniProt P41149)
[6] = biological target: mouse melanocortin-1 receptor (mouse) (UniProt Q01727)
mouse melanocortin-1 receptor (mouse), sequence (Q01727 whole entry): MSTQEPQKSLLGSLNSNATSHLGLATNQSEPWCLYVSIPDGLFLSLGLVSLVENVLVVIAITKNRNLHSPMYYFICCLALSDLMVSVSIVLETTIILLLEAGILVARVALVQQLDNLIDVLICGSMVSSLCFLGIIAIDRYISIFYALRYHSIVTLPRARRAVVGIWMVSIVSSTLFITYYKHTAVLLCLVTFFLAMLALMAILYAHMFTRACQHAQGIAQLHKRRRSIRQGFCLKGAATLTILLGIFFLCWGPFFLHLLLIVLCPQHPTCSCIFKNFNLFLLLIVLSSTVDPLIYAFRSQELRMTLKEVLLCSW

mMC1R, sequence (Q01727 whole entry): as above
mouse melanocortin-3 receptor (mouse), sequence (P33033 whole entry): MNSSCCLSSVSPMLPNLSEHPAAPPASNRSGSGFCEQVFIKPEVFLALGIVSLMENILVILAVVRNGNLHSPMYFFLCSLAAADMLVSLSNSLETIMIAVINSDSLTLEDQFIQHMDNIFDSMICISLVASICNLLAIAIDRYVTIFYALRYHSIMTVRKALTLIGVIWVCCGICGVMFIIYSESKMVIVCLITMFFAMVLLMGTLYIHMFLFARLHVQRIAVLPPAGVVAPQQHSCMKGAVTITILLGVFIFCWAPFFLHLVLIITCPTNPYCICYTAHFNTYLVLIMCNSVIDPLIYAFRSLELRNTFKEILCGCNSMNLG
mMC3R, sequence (P33033 whole entry): as above
mouse melanocortin-4 receptor (mouse), sequence (P56450 whole entry): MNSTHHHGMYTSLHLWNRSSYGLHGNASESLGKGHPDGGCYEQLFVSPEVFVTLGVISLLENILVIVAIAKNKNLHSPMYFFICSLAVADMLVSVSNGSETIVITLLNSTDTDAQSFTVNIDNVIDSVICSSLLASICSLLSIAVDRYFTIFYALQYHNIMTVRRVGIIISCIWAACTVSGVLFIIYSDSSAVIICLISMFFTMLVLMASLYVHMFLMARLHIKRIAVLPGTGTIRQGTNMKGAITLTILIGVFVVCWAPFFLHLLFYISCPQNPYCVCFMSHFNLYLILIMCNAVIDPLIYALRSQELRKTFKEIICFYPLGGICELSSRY
mouse melanocortin-5 receptor (mouse), sequence (P41149 whole entry): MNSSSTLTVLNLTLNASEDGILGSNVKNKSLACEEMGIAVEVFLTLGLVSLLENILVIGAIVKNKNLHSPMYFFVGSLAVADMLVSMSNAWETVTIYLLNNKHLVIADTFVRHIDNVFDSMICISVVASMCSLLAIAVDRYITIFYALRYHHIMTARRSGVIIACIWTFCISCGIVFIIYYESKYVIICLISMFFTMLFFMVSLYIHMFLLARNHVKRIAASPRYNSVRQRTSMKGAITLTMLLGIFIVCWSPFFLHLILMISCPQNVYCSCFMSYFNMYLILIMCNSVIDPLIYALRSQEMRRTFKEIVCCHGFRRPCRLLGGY

Row | Molecule | pA2, antagonism of NDP-MSH at mMC4R, Schild analysis, cAMP AlphaScreen [1] | pA2, antagonism of NDP-MSH at mMC3R, Schild analysis, cAMP AlphaScreen [2] | agonist EC50, cAMP AlphaScreen [3] | agonist EC50, cAMP AlphaScreen [4] | agonist EC50, cAMP AlphaScreen [5] | other results
1 | CC(=O)N[C@H](Cc1ccc(I)cc1)C(=O)N[C@@H](CCCNC(=N)N)C(=O)N[C@H](Cc1ccc(I)cc1)C(=O)N[C@@H](CCCNC(=N)N)C(N)=O [Peptide 45, Ac-DPhe(pI)-Arg-DPhe(pI)-Arg-NH2] (Ac-[dPhe(4-I)]R[dPhe(4-I)]R-NH2) | – | – | – | – | – | mMC1R agonist activity in words (mMC1R): full agonist activity
2 | CC(=O)N[C@H](Cc1ccc2ccccc2c1)C(=O)N[C@@H](CCCNC(=N)N)C(=O)N[C@H](Cc1ccc(I)cc1)C(=O)N[C@@H](CCCNC(=N)N)C(N)=O [Peptide 21, Ac-DNal(2’)-Arg-DPhe(pI)-Arg-NH2] (Ac-[d2Nal]R[dPhe(4-I)]R-NH2) | – | – | – | – | – | mMC1R agonist activity in words (mMC1R): full agonist activity
3 | CC(=O)N[C@H](Cc1ccc(I)cc1)C(=O)N[C@@H](CCCNC(=N)N)C(=O)N[C@H](Cc1ccc(I)cc1)C(=O)N[C@H](CCCCN)C(N)=O [Peptide 43, Ac-DPhe(pI)-Arg-DPhe(pI)-DLys-NH2] (Ac-[dPhe(4-I)]R[dPhe(4-I)][dK]-NH2) | – | – | – | – | – | mMC1R agonist activity in words (mMC1R): full agonist activity
4 | CC(=O)N[C@H](Cc1ccc2ccccc2c1)C(=O)N[C@@H](CCCNC(=N)N)C(=O)N[C@H](Cc1ccc(I)cc1)C(=O)N[C@H](CCCCN)C(N)=O [Peptide 19, Ac-DNal(2’)-Arg-DPhe(pI)-DLys-NH2] | – | – | – | – | – | mMC1R agonist activity in words (mMC1R): full agonist activity
5 | CC(=O)N[C@H](Cc1ccc2ccccc2c1)C(=O)N[C@H](Cc1ccc2ccccc2c1)C(=O)N[C@H](Cc1ccc2ccccc2c1)C(=O)N[C@@H](CCCNC(=N)N)C(N)=O [Peptide 3, Ac-DNal(2’)-DNal(2’)-DNal(2’)-Arg-NH2] | – | – | – | – | – | mMC3R percent maximal stimulatory response (compared to NDP-MSH) (mMC3R): 35% @100μM
6 | CC(=O)N[C@H](Cc1ccc2ccccc2c1)C(=O)N[C@H](Cc1ccc2ccccc2c1)C(=O)N[C@@H](Cc1c[nH]c2ccccc12)C(=O)N[C@@H](CCCNC(=N)N)C(N)=O [Peptide 6, Ac-DNal(2’)-DNal(2’)-Trp-Arg-NH2] (Ac-[d2Nal][d2Nal]WR-NH2) | – | – | – | – | – | mMC3R percent maximal stimulatory response (compared to NDP-MSH) (mMC3R): 35% @100μM
7 | CC(=O)N[C@H](Cc1ccc(I)cc1)C(=O)N[C@@H](CCCNC(=N)N)C(=O)N[C@@H](Cc1c[nH]c2ccccc12)C(=O)N[C@H](Cc1ccc2ccccc2c1)C(N)=O [Peptide 41, Ac-DPhe(pI)-Arg-Trp-DNal(2’)-NH2] (Ac-[dPhe(4-I)]RW[d2Nal]-NH2) | – | – | – | – | – | mMC3R percent maximal stimulatory response (compared to NDP-MSH) (mMC3R): 25% @100μM
8 | Ac-[d2Nal]RW[dK]-NH2 | 7.7 | 5.5 | > 100 µM | > 100 µM | > 100 µM | agonist EC50, cAMP AlphaScreen [6]: > 100 µM
9 | Ac-DNal(2’)-Arg-DNal(2’)-Arg-NH2 (peptide) | 8.3 | 6.1 | > 100 µM | > 100 µM | > 100 µM | % receptor activation relative to NDP-MSH (partial agonist), cAMP AlphaScreen [6]: 60%; apparent EC50 (partial agonist), cAMP AlphaScreen [6]: 1 µM
10 | Ac-DNal(2’)-Arg-DPhe(pI)-Arg-NH2 (peptide) | 8.6 | 7.1 | > 100 µM | > 100 µM | > 100 µM | agonist EC50, cAMP AlphaScreen [6]: 0.04 µM
11 | Ac-DPhe(pI)-Arg-DPhe(pI)-DNal(2’)-NH2 (peptide) | 6.6 | 6.3 | – | – | – | % of maximal NDP-MSH response at 100 μM, cAMP AlphaScreen [3]: 40%; % of maximal NDP-MSH response at 100 μM, cAMP AlphaScreen [4]: 40%; % of maximal NDP-MSH response at 100 μM, cAMP AlphaScreen [5]: 65%; agonist EC50, cAMP AlphaScreen [6]: 1.1 µM
12 | Ac-[d2Nal]R[2Nal][dK]-NH2 | 7.8 | 6.2 | > 100 µM | > 100 µM | > 100 µM | % receptor activation relative to NDP-MSH (partial agonist), cAMP AlphaScreen [6]: 50%; apparent EC50 (partial agonist), cAMP AlphaScreen [6]: 3.3 µM
13 | CC(=O)N[C@H](Cc1ccc2ccccc2c1)C(=O)N[C@@H](CCCNC(=N)N)C(=O)N[C@@H](Cc1c[nH]c2ccccc12)C(=O)N[C@H](Cc1ccc2ccccc2c1)C(N)=O [Peptide 17, Ac-DNal(2’)-Arg-Trp-DNal(2’)-NH2] (Ac-[d2Nal]RW[d2Nal]-NH2) | – | – | – | – | – | mMC3R percent maximal stimulatory response (compared to NDP-MSH) (mMC3R): 40% @100μM
14 | Ac-DPhe(pI)-Arg-DNal(2’)-DLys-NH2 (peptide) | 8.6 | 7.2 | > 100 µM | > 100 µM | > 100 µM | % receptor activation relative to NDP-MSH (partial agonist), cAMP AlphaScreen [6]: 30%; apparent EC50 (partial agonist), cAMP AlphaScreen [6]: 3.5 µM
15 | Ac-DNal(2’)-DNal(2’)-DNal(2’)-DLys-NH2 (peptide) | < 5.5 | < 5.5 | > 100 µM | > 100 µM | > 100 µM | % of maximal NDP-MSH response at 100 μM, cAMP AlphaScreen [6]: 55%
16 | CC(=O)N[C@H](Cc1ccc2ccccc2c1)C(=O)N[C@@H](CCCNC(=N)N)C(=O)N[C@@H](Cc1ccc2ccccc2c1)C(=O)N[C@H](CCCCN)C(N)=O [Peptide 22, Ac-DNal(2’)-Arg-Nal(2’)-DLys-NH2] (Ac-[d2Nal]R[2Nal][dK]-NH2) | – | – | – | – | – | mMC1R partial agonist percentage of receptor activation relative to NDP-MSH (mMC1R; partial agonists): 50 % NDP
17 | Ac-[d2Nal][d2Nal]WR-NH2 | < 5.5 | < 5.5 | – | – | – | % of maximal NDP-MSH response at 100 μM, cAMP AlphaScreen [3]: 60%; % of maximal NDP-MSH response at 100 μM, cAMP AlphaScreen [4]: 35%; % of maximal NDP-MSH response at 100 μM, cAMP AlphaScreen [5]: 45%; % of maximal NDP-MSH response at 100 μM, cAMP AlphaScreen [6]: 45%
18 | Ac-[dPhe(4-I)]R[2Nal]R-NH2 | – | 7.8 | – | > 100 µM | > 100 µM | antagonist Ki = 10^-(pA2), NDP-MSH at mMC4R, cAMP AlphaScreen [1]: 1 nM; % of maximal NDP-MSH response at 100 μM, cAMP AlphaScreen [3]: 25%; % of maximal NDP-MSH response at 100 μM, cAMP AlphaScreen [6]: 25%
19 | CC(=O)N[C@H](Cc1ccc(I)cc1)C(=O)N[C@H](Cc1ccc2ccccc2c1)C(=O)N[C@@H](Cc1ccc2ccccc2c1)C(=O)N[C@H](CCCCN)C(N)=O [Peptide 34, Ac-DPhe(pI)-DNal(2’)-Nal(2’)-DLys-NH2] (Ac-[dPhe(4-I)][d2Nal][2Nal][dK]-NH2) | – | – | – | – | – | mMC3R percent maximal stimulatory response (compared to NDP-MSH) (mMC3R): 20% @100μM
20 | B1 | 7.6 | 6.2 | > 100 µM | > 100 µM | > 100 µM | agonist EC50, cAMP AlphaScreen [6]: > 100 µM
21 | B2 | 8.5 | 7.4 | > 100 µM | > 100 µM | > 100 µM | agonist EC50, cAMP AlphaScreen [6]: 0.007 µM
22 | B3 | 8.7 | 7.4 | > 100 µM | – | > 100 µM | % of maximal NDP-MSH response at 100 μM, cAMP AlphaScreen [4]: 25%; % receptor activation relative to NDP-MSH (partial agonist), cAMP AlphaScreen [6]: 50%; apparent EC50 (partial agonist), cAMP AlphaScreen [6]: 7.9 µM
23 | B4 | 8.5 | 7.5 | > 100 µM | > 100 µM | > 100 µM | agonist EC50, cAMP AlphaScreen [6]: 0.035 µM
